Data published in paper PMC7859239.

How the values were obtained:
[1] = target: Schizosaccharomyces pombe RNA polymerase I (Schizosaccharomyces pombe (endogenous in S. pombe)) (UniProt P15398); experiment: negative-stain EM with 2D classification; peak fraction of the analytical SEC in low-salt buffer S300 (300 mM KAc); uranyl formate; 24,462 particles classified into 16 classes
[2] = target: Schizosaccharomyces pombe RNA polymerase I (Schizosaccharomyces pombe (endogenous in S. pombe)) (UniProt P15398); experiment: negative-stain EM with 2D classification; peak fraction of the analytical SEC in high-salt buffer S1500 (1.5 M KAc); uranyl formate; 20,054 particles classified into 16 classes
[3] = target: Schizosaccharomyces pombe RNA polymerase I (Schizosaccharomyces pombe (endogenous in S. pombe)) (UniProt P15398); experiment: cryo-EM structure; dimer particles in the 'monomer' dataset of BS3-crosslinked Sp Pol I after SEC (5 mM HEPES pH 7.8, 1 mM MgCl2, 10 µM ZnCl2, 150 mM KCl, 5 mM DTT); C2 symmetry imposed; 4.5 Å; model by placing two monomers and rigid body fitting of subdomains

percent of particles in a dimeric state [1]: < 2%
percent of Pol I molecules in a dimeric state [2]: 49%
percent of identified particles in a dimeric state [2]: 32%
stoichiometry N [3]: 2
Substance: Schizosaccharomyces pombe RNA polymerase I, P15398 1-1689; Q9P7X8 1-1174; O94616 1-348; Q09177 1-125; O43036 1-173; Q9P7P1 1-147; O94703 1-119; Q09191 1-210; P36595 1-142; Q92399 1-125; O13877 1-71; P48011 1-63; O14086 1-425; Q9USZ4 1-251
